The target of the test is T1, CD47 on NUGC-4 cells / hCLDN18.2-NUGC-4 cells (human, UniProt Q08722 19-323).
T1 construct: whole, on cells; also called 内源CD47; 人CD47
Put plainly: flow cytometry, blocking of SIRPα-mFc binding to hCLDN18.2-NUGC-4 cells. Background: In flow cytometry, cells or beads pass a laser one at a time.

T1 sequence (Q08722 19-323): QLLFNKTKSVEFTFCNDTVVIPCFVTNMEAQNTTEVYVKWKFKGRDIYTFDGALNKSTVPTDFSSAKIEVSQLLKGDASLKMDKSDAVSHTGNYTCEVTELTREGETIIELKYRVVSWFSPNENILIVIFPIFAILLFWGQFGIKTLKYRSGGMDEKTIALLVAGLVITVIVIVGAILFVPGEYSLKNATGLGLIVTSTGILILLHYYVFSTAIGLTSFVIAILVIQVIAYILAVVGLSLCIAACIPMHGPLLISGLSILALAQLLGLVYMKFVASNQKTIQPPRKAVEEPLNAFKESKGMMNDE

B1: 抗体1F8 (WO2018075857A1中1F8抗体) (antibody, V domains shown)
VH: KVQLVESGGGLVKPGGSLRLSCAASGFTFSNAWMNWVRQAPGKGLEWVGRIKRKTDGETTDYAAPVKGRFSISRDDSKNTLYLQMNSLKTEDTAVYYCAGSNRAFDIWGQGTMVTVSA
VL: DIVMTQSPDSLAVSLGERATINCKSSQSVLYSSNNRNYLAWYQQKPGQPPKLLINQASTRASGVPDRFSGSGSGTEFTLIISSLHAEDVAIYYCQQYYTPPLAFGGGTKLEIK
The molecule B1 came in with an IC50 of 1.98 µg/mL.

Usually IC50 stands for the concentration that inhibits the measured activity by half. Read a low IC50 as greater potency in that assay.

Values taken from patent publication CN117180420A (DRAGONBOAT BIOPHARMACEUTICAL SHANGHAI CO LTD, dated 2023).
